From publication PMC1919377, “Cation induced differential effect on structural and functional properties of Mycobacterium tuberculosis α-Isopropylmalate synthase” (BMC Structural Biology, 2007) come the findings set out here.

This series deals with the molecule itself. The series can be described thus: cross-linking.

B1: isolated TIM barrel domain of Mycobacterium tuberculosis α-isopropylmalate synthase (Arg47 to Phe457) (domain or fragment)
chain: RPFAEEVEPIRLRNRTWPDRVIDRAPLWCAVDLRDGNQALIDPMSPARKRRMFDLLVRMGYKEIEVGFPSASQTDFDFVREIIEQGAIPDDVTIQVLTQCRPELIERTFQACSGAPRAIVHFYNSTSILQRRVVFRANRAEVQAIATDGARKCVEQAAKYPGTQWRFEYSPESYTGTELEYAKQVCDAVGEVIAPTPERPIIFNLPATVEMTTPNVYADSIEWMSRNLANRESVILSLHPHNDRGTAVAAAELGFAAGADRIEGCLFGNGERTGNVCLVTLGLNLFSRGVDPQIDFSNIDEIRRTVEYCNQLPVHERHPYGGDLVYTAFSGSHQDAINKGLDAMKLDADAADCDVDDMLWQVPYLPIDPRDVGRTYEAVIRVNSQSGKGGVAYIMKTDHGLSLPRRLQIEF
notes: also called catalytic TIM barrel domain; Band I; not shown: histidine tag, N-terminal, cleaved
A word on the stoichiometry N: it is a count of units in the complex or per binding partner. Turning to B1, the “stoichiometry N” value came to 2.
